Target: OXA-23-type carbapenemase (UniProt Q9L4P2)
Experiment: indirect ELISA, plate coated with OXA-23-type carbapenemase at 0.2 ug/mL, serial dilution of purified antibody from 1:1,000
Conditions: scale: dilution factor

Chain of UniProt Q9L4P2 (Q9L4P2 18-273 limits assumed): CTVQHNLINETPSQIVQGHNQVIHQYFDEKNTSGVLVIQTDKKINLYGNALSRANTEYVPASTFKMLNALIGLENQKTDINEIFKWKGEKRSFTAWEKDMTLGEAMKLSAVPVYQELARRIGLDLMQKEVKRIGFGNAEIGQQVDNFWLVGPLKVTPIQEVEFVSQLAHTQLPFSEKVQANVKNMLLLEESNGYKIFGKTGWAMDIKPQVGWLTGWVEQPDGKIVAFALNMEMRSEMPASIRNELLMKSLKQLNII

B1: antibody HB12 (antibody, V domains shown)
VH: VQLQQSGAELVKPGASVKLSCKTSGYTFTSYWMYWVKQRPGQGLEWIGEIYPTNGRTNYNEKFKTKATLTVDKSSSTAYMQLSSLTSEDSAVYYCAIYYYGSYAMDYWGQGTSVTVSS
VL: DIVMTQSHKFMSTSVGDRVSITCKASQDVSIAVAWFQQKPGQSPKLLIYWASTRHTGVPDRFTGSGSGTDYTLTISSVQAEDLALYYCQQHYSTPYLFGGGTKLEIKR
B1 gave a titer greater than 640000.

B2: antibody FA2 (antibody, V domains shown)
VH: VQLKQSGPGLVQPSQSLSITCTVSGFSLTSYGVHWVRRSPGKGLEWLGVIWRGGNTDYNAAFMSRLSITKDNSKSQVFFKMTSLQGDDTAIYSCVKSLTTSTFDYWGQGTLVTVSS
VL: DIVMTQSHKLMSTSVGDRVSITCKGSQDVRTAVAWYQQKPGQSPNLLIYWASTRHTGVPDRFTGSGSGTDYILTITSVQAEDLALYYCQQHYSIPYTFGGGTKLEIKR
For B2, the titer was greater than 640000.

Reference: patent EP4063498B1
